Reference: the supplement of paper PMC10065799, “High-throughput profiling of sequence recognition by tyrosine kinases and SH2 domains using bacterial peptide display” (eLife, 2023)

Key:
AncSZ = assay: phosphorylation enrichment, bacterial display (enrichment ratio); higher = better substrate or ligand; peptides without Tyr show the background
EPHB1 = EPHB1 (UniProt P54762); assay: as above
EPHB2 = EPHB2 (UniProt P29323); assay: as above
FGFR1 = FGFR1 (UniProt P11362); assay: as above
FGFR3 = FGFR3 (UniProt P22607); assay: as above
FGFR3, sequence (P22607 whole entry, looked up): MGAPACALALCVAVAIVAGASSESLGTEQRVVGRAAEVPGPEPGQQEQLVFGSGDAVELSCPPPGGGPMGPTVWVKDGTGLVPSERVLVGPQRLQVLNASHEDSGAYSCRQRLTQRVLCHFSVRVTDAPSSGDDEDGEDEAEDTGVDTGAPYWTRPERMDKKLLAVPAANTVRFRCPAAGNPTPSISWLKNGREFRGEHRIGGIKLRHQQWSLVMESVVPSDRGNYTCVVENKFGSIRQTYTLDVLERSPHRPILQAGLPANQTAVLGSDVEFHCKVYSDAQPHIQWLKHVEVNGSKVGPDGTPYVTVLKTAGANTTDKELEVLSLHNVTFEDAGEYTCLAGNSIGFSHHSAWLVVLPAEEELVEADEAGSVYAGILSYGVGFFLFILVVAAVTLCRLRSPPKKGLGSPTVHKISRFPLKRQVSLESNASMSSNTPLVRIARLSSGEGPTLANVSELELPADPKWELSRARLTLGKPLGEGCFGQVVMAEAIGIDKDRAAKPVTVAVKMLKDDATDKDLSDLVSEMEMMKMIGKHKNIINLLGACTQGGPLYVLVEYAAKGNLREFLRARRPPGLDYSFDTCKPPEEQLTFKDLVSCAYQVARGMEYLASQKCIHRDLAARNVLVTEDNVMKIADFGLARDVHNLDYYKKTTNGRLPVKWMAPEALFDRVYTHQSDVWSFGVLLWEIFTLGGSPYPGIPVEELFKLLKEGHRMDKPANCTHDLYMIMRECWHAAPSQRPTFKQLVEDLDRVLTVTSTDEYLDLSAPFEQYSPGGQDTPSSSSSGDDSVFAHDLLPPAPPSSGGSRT

Fer (mouse) = assay: as above
Fes = Fes (UniProt P07332); assay: as above
Fes, sequence (P07332 whole entry, looked up): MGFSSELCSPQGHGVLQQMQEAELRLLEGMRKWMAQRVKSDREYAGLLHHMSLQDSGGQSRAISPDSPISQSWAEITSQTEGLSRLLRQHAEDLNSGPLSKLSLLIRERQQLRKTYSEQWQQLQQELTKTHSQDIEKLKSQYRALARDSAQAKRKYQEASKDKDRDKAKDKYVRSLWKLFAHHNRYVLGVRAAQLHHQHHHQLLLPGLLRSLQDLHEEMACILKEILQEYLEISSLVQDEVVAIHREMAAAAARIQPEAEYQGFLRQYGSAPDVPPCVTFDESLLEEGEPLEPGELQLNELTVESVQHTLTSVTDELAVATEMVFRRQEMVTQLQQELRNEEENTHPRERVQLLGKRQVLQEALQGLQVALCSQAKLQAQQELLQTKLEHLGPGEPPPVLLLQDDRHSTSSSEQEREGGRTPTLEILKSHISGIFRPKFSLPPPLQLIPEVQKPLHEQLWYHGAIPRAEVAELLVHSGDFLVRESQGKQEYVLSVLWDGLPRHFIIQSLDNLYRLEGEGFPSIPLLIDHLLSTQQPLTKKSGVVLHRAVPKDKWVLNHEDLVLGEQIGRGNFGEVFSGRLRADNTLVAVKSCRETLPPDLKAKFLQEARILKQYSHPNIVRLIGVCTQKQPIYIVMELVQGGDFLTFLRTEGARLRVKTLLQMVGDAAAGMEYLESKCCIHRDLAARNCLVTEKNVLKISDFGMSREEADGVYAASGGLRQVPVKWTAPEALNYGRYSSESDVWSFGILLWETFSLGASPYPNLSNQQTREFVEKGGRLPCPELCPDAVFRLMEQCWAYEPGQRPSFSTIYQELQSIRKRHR

Fyn = Fyn (UniProt P06241); assay: as above
Fyn, sequence (P06241 whole entry, looked up): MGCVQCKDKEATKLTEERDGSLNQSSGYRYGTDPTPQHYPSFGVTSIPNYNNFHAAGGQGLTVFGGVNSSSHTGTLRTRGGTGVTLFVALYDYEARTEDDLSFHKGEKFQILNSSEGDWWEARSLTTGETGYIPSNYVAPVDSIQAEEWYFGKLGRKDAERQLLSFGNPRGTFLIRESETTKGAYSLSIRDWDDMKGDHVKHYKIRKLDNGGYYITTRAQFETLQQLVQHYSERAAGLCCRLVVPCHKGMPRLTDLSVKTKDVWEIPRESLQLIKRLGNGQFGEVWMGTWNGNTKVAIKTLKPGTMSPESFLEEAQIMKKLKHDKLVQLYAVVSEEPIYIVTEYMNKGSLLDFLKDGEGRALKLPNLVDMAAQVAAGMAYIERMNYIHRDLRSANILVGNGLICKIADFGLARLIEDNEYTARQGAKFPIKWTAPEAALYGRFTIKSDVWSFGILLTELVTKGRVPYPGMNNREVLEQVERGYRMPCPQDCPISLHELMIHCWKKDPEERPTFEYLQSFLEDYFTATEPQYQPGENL

Hck = Hck (UniProt P08631); assay: as above
Hck, sequence (P08631 whole entry, looked up): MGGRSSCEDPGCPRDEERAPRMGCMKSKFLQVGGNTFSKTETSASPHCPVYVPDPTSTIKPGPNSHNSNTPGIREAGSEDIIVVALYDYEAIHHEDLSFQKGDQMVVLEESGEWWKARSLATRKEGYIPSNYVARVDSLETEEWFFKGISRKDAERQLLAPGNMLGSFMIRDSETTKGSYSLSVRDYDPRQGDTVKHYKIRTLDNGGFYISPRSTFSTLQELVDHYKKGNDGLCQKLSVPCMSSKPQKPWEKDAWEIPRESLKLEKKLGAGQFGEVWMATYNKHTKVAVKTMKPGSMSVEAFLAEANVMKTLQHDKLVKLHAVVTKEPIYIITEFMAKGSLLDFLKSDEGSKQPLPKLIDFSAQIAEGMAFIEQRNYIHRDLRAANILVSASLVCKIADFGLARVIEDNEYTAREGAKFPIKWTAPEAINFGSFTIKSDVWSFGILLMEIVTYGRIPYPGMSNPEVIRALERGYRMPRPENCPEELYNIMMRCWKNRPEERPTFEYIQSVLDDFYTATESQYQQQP

Jak2 = Jak2 (UniProt O60674); assay: as above
MERTK = MERTK (UniProt Q12866); assay: as above
MERTK, sequence (Q12866 whole entry, looked up): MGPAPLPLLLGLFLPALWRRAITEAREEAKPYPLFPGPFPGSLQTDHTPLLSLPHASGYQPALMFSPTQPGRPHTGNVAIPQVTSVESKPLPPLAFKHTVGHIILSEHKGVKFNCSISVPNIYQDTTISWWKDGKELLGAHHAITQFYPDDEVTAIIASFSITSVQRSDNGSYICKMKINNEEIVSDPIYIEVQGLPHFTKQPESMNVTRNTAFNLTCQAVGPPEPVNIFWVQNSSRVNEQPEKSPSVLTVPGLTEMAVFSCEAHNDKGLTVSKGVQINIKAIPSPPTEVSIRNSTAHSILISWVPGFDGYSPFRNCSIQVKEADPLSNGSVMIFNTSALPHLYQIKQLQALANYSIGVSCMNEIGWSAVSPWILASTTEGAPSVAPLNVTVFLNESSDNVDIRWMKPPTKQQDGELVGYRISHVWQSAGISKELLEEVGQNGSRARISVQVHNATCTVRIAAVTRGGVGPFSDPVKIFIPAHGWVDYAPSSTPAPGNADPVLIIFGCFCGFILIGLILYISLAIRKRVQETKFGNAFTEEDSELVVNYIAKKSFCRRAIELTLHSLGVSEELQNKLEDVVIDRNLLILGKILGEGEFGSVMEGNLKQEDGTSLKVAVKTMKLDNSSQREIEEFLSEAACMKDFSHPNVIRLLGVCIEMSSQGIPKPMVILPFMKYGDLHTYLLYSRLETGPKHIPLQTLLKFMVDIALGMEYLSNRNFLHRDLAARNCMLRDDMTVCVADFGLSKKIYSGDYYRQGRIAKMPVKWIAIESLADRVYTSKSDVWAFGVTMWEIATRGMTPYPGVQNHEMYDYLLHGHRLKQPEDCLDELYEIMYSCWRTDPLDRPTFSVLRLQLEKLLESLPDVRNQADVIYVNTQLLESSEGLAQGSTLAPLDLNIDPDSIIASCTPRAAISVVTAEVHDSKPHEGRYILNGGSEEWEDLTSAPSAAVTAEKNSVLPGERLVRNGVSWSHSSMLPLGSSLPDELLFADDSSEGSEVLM

c-Abl (mouse) = assay: as above
c-Src = assay: as above
Grb2 SH2 = Grb2 SH2 (UniProt P62993); assay: SH2 binding enrichment of the phosphorylated peptide, bacterial display (enrichment ratio); higher = better substrate or ligand; peptides without Tyr show the background
Grb2 SH2, sequence (P62993 whole entry, looked up): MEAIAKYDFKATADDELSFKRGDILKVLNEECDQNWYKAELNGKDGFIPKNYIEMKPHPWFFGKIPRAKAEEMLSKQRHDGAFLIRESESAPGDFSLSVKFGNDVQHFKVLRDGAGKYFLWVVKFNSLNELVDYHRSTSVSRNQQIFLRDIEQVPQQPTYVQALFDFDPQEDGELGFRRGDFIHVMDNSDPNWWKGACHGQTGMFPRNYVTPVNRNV

SHP2-C SH2 = assay: as above
c-Src SH2 = assay: as above
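For SH2 binding enrichment of the phosphorylated peptide, bacterial display in this document: peptide library displayed on the E. coli surface as eCPX fusions, selected cells deep-sequenced, score is each peptide's frequency after selection divided by its frequency in the input.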
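For phosphorylation enrichment, bacterial display in this document: 11-residue human phosphosite peptides and single-mutation variants displayed on the E. coli surface, counted by deep sequencing, each peptide's frequency after selection divided by its frequency in the unselected input library; frequency after pTyr selection over input frequency; kinase dosed for 20-30% of maximal phosphorylation in three min.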

FGFR1, sequence (P11362 whole entry, looked up): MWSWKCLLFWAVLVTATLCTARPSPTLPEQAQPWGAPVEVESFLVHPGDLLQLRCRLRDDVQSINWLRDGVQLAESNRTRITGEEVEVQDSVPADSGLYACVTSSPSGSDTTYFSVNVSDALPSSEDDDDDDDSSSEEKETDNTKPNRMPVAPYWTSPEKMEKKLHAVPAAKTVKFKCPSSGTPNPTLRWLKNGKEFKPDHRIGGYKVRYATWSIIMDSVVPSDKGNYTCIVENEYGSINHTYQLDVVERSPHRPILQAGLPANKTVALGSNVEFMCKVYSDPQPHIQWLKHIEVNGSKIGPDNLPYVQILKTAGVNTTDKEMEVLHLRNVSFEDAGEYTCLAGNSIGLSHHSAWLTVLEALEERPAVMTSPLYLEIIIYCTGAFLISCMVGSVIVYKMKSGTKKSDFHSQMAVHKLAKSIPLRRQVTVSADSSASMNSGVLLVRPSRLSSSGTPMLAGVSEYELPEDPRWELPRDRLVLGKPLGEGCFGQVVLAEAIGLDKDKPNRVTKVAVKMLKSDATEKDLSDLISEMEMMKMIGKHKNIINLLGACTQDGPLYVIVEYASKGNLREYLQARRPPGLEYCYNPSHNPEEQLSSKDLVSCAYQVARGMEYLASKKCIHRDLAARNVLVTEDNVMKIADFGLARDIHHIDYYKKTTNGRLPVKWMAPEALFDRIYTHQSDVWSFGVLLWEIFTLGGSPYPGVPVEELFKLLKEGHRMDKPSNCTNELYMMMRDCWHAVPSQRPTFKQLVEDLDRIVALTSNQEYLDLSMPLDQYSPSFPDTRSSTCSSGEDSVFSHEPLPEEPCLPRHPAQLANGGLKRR

Sequence | phosphorylation enrichment (AncSZ) | phosphorylation enrichment (EPHB1) | phosphorylation enrichment (EPHB2) | phosphorylation enrichment (FGFR1) | phosphorylation enrichment (FGFR3) | phosphorylation enrichment (Fer (mouse)) | phosphorylation enrichment (Fes) | phosphorylation enrichment (Fyn) | phosphorylation enrichment (Hck) | phosphorylation enrichment (Jak2) | phosphorylation enrichment (MERTK) | phosphorylation enrichment (c-Abl (mouse)) | phosphorylation enrichment (c-Src) | SH2 binding enrichment (Grb2 SH2) | SH2 binding enrichment (SHP2-C SH2) | SH2 binding enrichment (c-Src SH2)
AADGRYEVLFL [SEMA3F_Y478] | 1.07 | 0.731 | 0.683 | 0.62 | 0.822 | 2.97 | 1.01 | 0.447 | 0.792 | 1.02 | 0.749 | 0.624 | 0.489 | 0.832 | 0.617 | 7
AALVQYFMEHH [PTPN11_Y80_E76A_YF] | 0.798 | 0.623 | 0.541 | 0.573 | 0.727 | 0.476 | 1.05 | 0.439 | 0.519 | 0.772 | 0.401 | 0.665 | 0.441 | 1.34 | 1.42 | 0.946
AAVLNYKAWRD [GRIN2A_Y737_G740W] | 0.839 | 0.408 | 0.276 | 0.534 | 0.462 | 0.338 | 0.656 | 0.35 | 0.436 | 0.646 | 0.386 | 0.808 | 0.396 | 1.35 | 0.915 | 0.481
ADCRFYTFPQM [GAMT_Y223_A224T_YF] | 1.88 | 1.07 | 0.813 | 0.584 | 0.895 | 1.99 | 1.48 | 0.811 | 0.534 | 1.2 | 5.08 | 0.784 | 1.24 | 1.25 | 0.717 | 0.513
ADKSAYLMGVN [MYH7_Y386_L390V] | 0.574 | 0.418 | 0.466 | 0.399 | 0.466 | 0.396 | 0.661 | 0.405 | 0.401 | 0.58 | 0.338 | 0.572 | 0.41 | 0.786 | 0.594 | 0.32
ADRLEYSRTGL [MMUT_Y287_G284R] | 0.66 | 0.309 | 0.722 | 0.764 | 0.651 | 0.338 | 0.599 | 0.408 | 0.346 | 1.25 | 0.728 | 0.498 | 0.459 | 0.859 | 1.14 | 0.517
ADSLRYIFPKL [EIF2B3_Y92_YF] | 0.552 | 0.43 | 0.381 | 0.398 | 0.497 | 0.31 | 0.681 | 0.474 | 0.413 | 0.64 | 0.459 | 0.566 | 0.457 | 0.966 | 1.41 | 0.667
AEEPIYIIVPA [BMXtide_2014] | 4.75 | 18.5 | 24.2 | 13.9 | 12.1 | 11.1 | 2.98 | 10.1 | 7.96 | 2.47 | 9.02 | 8.02 | 8.8 | 1.05 | 0.956 | 0.83
AELVRYFMEHH [PTPN11_Y80_Q79R_YF] | 0.653 | 0.458 | 0.526 | 0.454 | 0.471 | 0.427 | 0.883 | 0.414 | 0.46 | 0.621 | 0.421 | 0.493 | 0.433 | 0.807 | 0.632 | 0.625
AESPEHVHMFT [FAM111A_Y511_Y511H_YF] | 0.746 | 0.566 | 0.569 | 0.433 | 0.614 | 0.431 | 1.01 | 0.446 | 0.447 | 0.754 | 0.416 | 0.661 | 0.36 | 0.786 | 0.54 | 0.421
AEYGLYGAMVW [VSX2_Y222_R227W] | 1.45 | 1.33 | 4 | 0.521 | 0.86 | 4.58 | 1.37 | 6.22 | 5.32 | 1.25 | 2.66 | 1.1 | 4.49 | 0.62 | 0.696 | 0.419
AFDNLYFWDQD [ERBB2_Y1221_YF] | 2.1 | 1.42 | 1.25 | 6.87 | 6.95 | 1.68 | 1.93 | 5.76 | 4.26 | 1.56 | 5.13 | 0.981 | 5.12 | 0.865 | 0.59 | 0.495
AFEQQYSPIPK [NOX1_Y373_R378K] | 0.772 | 0.766 | 0.411 | 0.744 | 0.575 | 0.435 | 0.741 | 0.514 | 3.14 | 0.534 | 0.874 | 0.612 | 0.802 | 0.856 | 0.569 | 0.74
AFLEDYFTSTK [SRC_Y522_E527K] | 1.1 | 0.378 | 0.492 | 0.639 | 0.774 | 0.356 | 0.97 | 0.474 | 0.52 | 1.26 | 0.504 | 0.591 | 0.463 | 0.947 | 1.07 | 0.553
AFLGEYIPTVF [RAC2_Y32_P29L] | 1.31 | 0.733 | 0.499 | 0.826 | 0.967 | 0.568 | 1.43 | 0.593 | 0.516 | 1.49 | 0.638 | 1.1 | 0.664 | 0.922 | 1.01 | 0.658
AGGTRYRFVSQ [UCN3_Y95_R91G_YF] | 0.426 | 0.397 | 0.272 | 0.461 | 0.377 | 0.386 | 0.43 | 0.536 | 0.338 | 0.465 | 0.363 | 0.576 | 0.393 | 0.849 | 0.641 | 0.489
AGLEEYSAMRD [HRAS_Y64_Q61L] | 0.952 | 0.568 | 0.585 | 0.52 | 0.666 | 0.495 | 0.997 | 0.45 | 0.523 | 0.837 | 0.429 | 0.636 | 0.484 | 0.821 | 0.693 | 0.572

Sequence | phosphorylation enrichment (AncSZ) | phosphorylation enrichment (EPHB1) | phosphorylation enrichment (EPHB2) | phosphorylation enrichment (FGFR1) | phosphorylation enrichment (FGFR3) | phosphorylation enrichment (Fer (mouse)) | phosphorylation enrichment (Fes) | phosphorylation enrichment (Fyn) | phosphorylation enrichment (Hck) | phosphorylation enrichment (Jak2) | phosphorylation enrichment (MERTK) | phosphorylation enrichment (c-Abl (mouse)) | phosphorylation enrichment (c-Src) | SH2 binding enrichment (Grb2 SH2) | SH2 binding enrichment (SHP2-C SH2) | SH2 binding enrichment (c-Src SH2)
AGVDRYSLGTS [C5orf42_Y1451_P1446A] | 0.59 | 0.463 | 0.366 | 0.398 | 0.51 | 0.398 | 0.599 | 0.361 | 0.455 | 0.498 | 0.394 | 0.388 | 0.391 | 0.79 | 0.615 | 0.45
AHLLQYNHRVK [LGALS3_Y221] | 0.592 | 0.461 | 0.493 | 0.397 | 0.442 | 0.371 | 0.604 | 0.288 | 0.366 | 0.562 | 0.42 | 0.668 | 0.459 | 1.03 | 1.13 | 0.874
AIGFEYSEINI [SIGLEC12_Y588_YF] | 1.14 | 0.481 | 0.5 | 2.77 | 1.69 | 3.84 | 1.04 | 0.642 | 1.14 | 1.22 | 0.574 | 0.689 | 1.46 | 0.632 | 0.86 | 0.923
AKGMKYLASKK [MET_Y1194] | 0.482 | 0.244 | 0.324 | 0.341 | 0.311 | 0.379 | 0.536 | 0.354 | 0.394 | 0.489 | 0.335 | 0.445 | 0.406 | 0.975 | 0.557 | 0.553
AKGMKYVASKK [MET_Y1194_L1195V] | 0.451 | 0.301 | 0.276 | 0.415 | 0.356 | 0.322 | 0.548 | 0.339 | 0.425 | 0.5 | 0.349 | 0.451 | 0.381 | 0.969 | 0.763 | 0.78
AKIDGYITSYR | 0.809 | 0.52 | 0.51 | 0.469 | 0.556 | 0.338 | 0.763 | 0.433 | 0.407 | 0.558 | 0.415 | 0.565 | 0.417 | 0.815 | 0.739 | 0.501
AKLDIYKRKVE [VWA3B_Y918_N916D] | 0.589 | 0.295 | 0.283 | 0.298 | 0.382 | 0.317 | 0.707 | 0.485 | 0.414 | 0.475 | 0.291 | 0.411 | 0.37 | 0.871 | 0.732 | 0.45
AKLNIYKRKVE [VWA3B_Y918] | 0.486 | 0.309 | 0.305 | 0.331 | 0.422 | 0.34 | 0.504 | 0.53 | 0.307 | 0.603 | 0.448 | 0.91 | 0.4 | 0.854 | 0.664 | 0.517
ALAAPYVLYPS [CEFIP_Y1332_G1337S] | 0.786 | 0.652 | 0.473 | 2.02 | 1.28 | 0.581 | 0.811 | 0.697 | 0.628 | 0.856 | 0.721 | 0.583 | 6.33 | 1.03 | 0.804 | 0.762
ALAHKYQGGGG [HBB_Y146_H147Q] | 0.824 | 0.204 | 0.436 | 0.476 | 0.476 | 0.283 | 0.58 | 0.451 | 0.375 | 0.527 | 0.588 | 0.565 | 0.491 | 0.691 | 0.546 | 0.415
ALKWGYTVKGI [OAT_Y158_R154L] | 1.13 | 0.447 | 0.547 | 0.426 | 0.72 | 0.445 | 1.24 | 0.519 | 0.341 | 1.01 | 0.304 | 0.659 | 0.31 | 0.872 | 0.845 | 0.625
ALLVFYAATIA [SLC20A2_Y187_P184L] | 0.934 | 0.648 | 0.565 | 0.445 | 0.672 | 0.501 | 1.13 | 0.44 | 0.513 | 1.04 | 0.429 | 0.871 | 0.455 | 0.803 | 0.969 | 0.633
AMIADYMFWLG [SPATA16_Y290] | 2.24 | 7.43 | 15.2 | 12.2 | 10.8 | 2.01 | 1.31 | 0.727 | 1.49 | 3.71 | 2.52 | 1.24 | 1.3 | 1.16 | 1.17 | 0.806
ANVIRYFPTQA [SLC25A4_Y81] | 0.78 | 0.42 | 0.502 | 0.524 | 0.492 | 0.547 | 0.648 | 0.585 | 0.558 | 0.61 | 0.546 | 0.541 | 0.674 | 1.09 | 0.673 | 0.64
ANVKWYRSGRE | 0.875 | 0.401 | 0.425 | 0.46 | 0.886 | 0.402 | 0.841 | 0.43 | 0.412 | 0.585 | 0.474 | 0.587 | 0.512 | 0.739 | 0.46 | 0.368
APQYTYTQGGQ [FLNA_Y1763_A1764T] |  |  |  |  |  |  |  |  |  |  |  |  |  | 1.54 | 0.799 | 1.84
LPEVSYVKAID [GLRA1_Y307_K304E] | 0.207 | 0.095 |  |  | 0.1 |  | 0.205 | 0.28 | 0.203 | 0.44 | 0.07 | 0.132 | 0.126 | 0.862 | 0.783 | 0.437
